Here are results for six sequences from the supplement of paper PMC11246515.

The series can be described thus: total protein half-life in vivo (active degradation + dilution); higher = more stable protein.
[1] abbreviates: E. coli NCM3722 delta-clpP delta-lon delta-hslV, growth: N-lim chemostat, doubling time 6 h.
Where [2] appears, read: E. coli NCM3722 delta-clpP, growth: N-lim chemostat, doubling time 6 h.
[3] abbreviates: E. coli NCM3722 delta-hslV, growth: N-lim chemostat, doubling time 6 h.
The mark [4] stands for this setting: E. coli NCM3722 delta-lon, growth: N-lim chemostat, doubling time 6 h.
Setting [5] is: E. coli NCM3722 delta-smpB, growth: N-lim chemostat, doubling time 6 h.
[6] abbreviates: wild type E. coli NCM3722, growth: C-lim chemostat, doubling time 3 h.
[7] abbreviates: wild type E. coli NCM3722, growth: C-lim chemostat, doubling time 6 h.
Setting [8] is: wild type E. coli NCM3722, growth: C-lim chemostat, doubling time 12 h.
The mark [9] stands for this setting: wild type E. coli NCM3722, growth: N-lim chemostat, doubling time 6 h.
Setting [10] is: wild type E. coli NCM3722, growth: N-lim chemostat, doubling time 12 h.
[11] abbreviates: wild type E. coli NCM3722, growth: P-lim chemostat, doubling time 6 h.
Where [12] appears, read: wild type E. coli NCM3722, growth: P-lim chemostat, doubling time 12 h.

± gives the standard deviation of the averaged measurements.

On to “MNIQALLSEKVRQAMIAAGAPADCEPQVRQSAKVQFGDYQANGMMAVAKKLGMAPRQLAEQVLTHLDLNGIASKVEIAGPGFINIFLDPAFLAEHVQQALASDRLGVATPEKQTIVVDYSAPNVAKEMHVGHLRSTIIGDAAVRTLEFLGHKVIRANHVGDWGTQFGMLIAWLEKQQQENAGEMELADLEGFYRDAKKHYDEDEEFAERARNYVVKLQSGDEYFREMWRKLVDITMTQNQITYDRLNVTLTRDDVMGESLYNPMLPGIVADLKAKGLAVESEGATVVFLDEFKNKEGEPMGVIIQKKDGGYLYTTTDIACAKYRYETLHADRVLYYIDSRQHQHLMQAWAIVRKAGYVPESVPLEHHMFGMMLGKDGKPFKTRAGGTVKLADLLDEALERARRLVAEKNPDMPADELEKLANAVGIGAVKYADLSKNRTTDYIFDWDNMLAFEGNTAPYMQYAYTRVLSVFRKAEIDEEQLAAAPVIIREDREAQLAARLLQFEETLTVVAREGTPHVMCAYLYDLAGLFSGFYEHCPILSAENEEVRNSRLKLAQLTAKTLKLGLDTLGIETVERM”, for which the “total protein half-life in vivo” value by setting is: under setting [1], 5.58 ± 1.2 h; under setting [2], 4.719 ± 0.0071 h; under setting [3], 4.73 ± 0.089 h; under setting [4], 5.12 ± 0.092 h; under setting [5], 4.66 ± 0.21 h; under setting [6], 3.13 ± 0.036 h. Also, the “total protein half-life in vivo” value under setting [7] turned out to be 5.89 ± 0.47 h; the “total protein half-life in vivo” value under setting [8] amounted to 10.2 ± 0.2 h; the “total protein half-life in vivo” value under setting [9] turned out to be 4.48 ± 0.06 h; the “total protein half-life in vivo” value under setting [10] was found to be 7.82 ± 0.086 h; the “total protein half-life in vivo” value under setting [11] was 6.03 ± 0.33 h; the “total protein half-life in vivo” value under setting [12] is 12 ± 0.36 h.

“MSQDPFQEREAEKYANPIPSREFILEHLTKREKPASRDELAVELHIEGEEQLEGLRRRLRAMERDGQLVFTRRQCYALPERLDLVKGTVIGHRDGYGFLRVEGRKDDLYLSSEQMKTCIHGDQVLAQPLGADRKGRREARIVRVLVPKTSQIVGRYFTEAGVGFVVPDDSRLSFDILIPPDQIMGARMGFVVVVELTQRPTRRTKAVGKIVEVLGDNMGTGMAVDIALRTHEIPYIWPQAVEQQVAGLKEEVPEEAKAGRVDLRDLPLVTIDGEDARDFDDAVYCEKKRGGGWRLWVAIADVSYYVRPSTPLDREARNRGTSVYFPSQVIPMLPEVLSNGLCSLNPQVDRLCMVCEMTVSSKGRLTGYKFYEAVMSSHARLTYTKVWHILQGDQDLREQYAPLVKHLEELHNLYKVLDKAREERGGISFESEEAKFIFNAERRIERIEQTQRNDAHKLIEECMILANISAARFVEKAKEPALFRIHDKPSTEAITSFRSVLAELGLELPGGNKPEPRDYAELLESVADRPDAEMLQTMLLRSMKQAIYDPENRGHFGLALQSYAHFTSPIRRYPDLTLHRAIKYLLAKEQGHQGNTTETGGYHYSMEEMLQLGQHCSMAERRADEATRDVADWLKCDFMLDQVGNVFKGVISSVTGFGFFVRLDDLFIDGLVHVSSLDNDYYRFDQVGQRLMGESSGQTYRLGDRVEVRVEAVNMDERKIDFSLISSERAPRNVGKTAREKAKKGDAGKKGGKRRQVGKKVNFEPDSAFRGEKKTKPKAAKKDARKAKKPSAKTQKIAAATKAKRAAKKKVAE”: the “total protein half-life in vivo” value by setting is: under setting [1], 6.54 ± 0.13 h; under setting [3], 5.66 ± 0.29 h; under setting [4], 5.87 ± 0.12 h; under setting [5], 5.35 ± 0.14 h; under setting [6], 3.06 ± 0.13 h; under setting [7], 6.06 ± 0.13 h. Besides, the “total protein half-life in vivo” value runs as follows: under setting [8], 12.1 ± 0.14 h; under setting [9], 5.67 ± 0.095 h; under setting [10], 9.82 ± 0.13 h; under setting [11], 5.679 ± 0.029 h; under setting [12], 11.2 ± 0.32 h.

Regarding “MACGEFSLIARYFDRVRSSRLDVELGIGDDCALLNIPEKQTLAISTDTLVAGNHFLPDIDPADLAYKALAVNLSDLAAMGADPAWLTLALTLPDVDEAWLESFSDSLFDLLNYYDMQLIGGDTTRGPLSMTLGIHGFVPMGRALTRSGAKPGDWIYVTGTPGDSAAGLAILQNRLQVADAKDADYLIKRHLRPSPRILQGQALRDLANSAIDLSDGLISDLGHIVKASDCGARIDLALLPFSDALSRHVEPEQALRWALSGGEDYELCFTVPELNRGALDVALGHLGVPFTCIGQMTADIEGLCFIRDGEPVTLDWKGYDHFATP [P0AGG0]”, the “total protein half-life in vivo” value under setting [1] worked out at 5.68 ± 0.31 h; the “total protein half-life in vivo” value under setting [2] turned out to be 4.97 ± 0.5 h; the “total protein half-life in vivo” value under setting [3] was 5.14 ± 1.4 h; the “total protein half-life in vivo” value under setting [5] stood at 3.99 ± 0.23 h; the “total protein half-life in vivo” value under setting [7] is 5.41 ± 0.077 h; the “total protein half-life in vivo” value under setting [8] amounted to 10.2 ± 1 h. The “total protein half-life in vivo” value under setting [9] is 4.17 ± 0.23 h, the “total protein half-life in vivo” value under setting [10] was 7.02 ± 0.95 h, the “total protein half-life in vivo” value under setting [11] was 5.41 ± 0.33 h and the “total protein half-life in vivo” value under setting [12] came out at 12.1 ± 0.31 h.

Turning to “MATHERRVVFFDLDGTLHQQDMFGSFLRYLLRRQPLNALLVLPLLPIIAIALLIKGRAARWPMSLLLWGCTFGHSEARLQTLQADFVRWFRDNVTAFPLVQERLTTYLLSSDADIWLITGSPQPLVEAVYFDTPWLPRVNLIASQIQRGYGGWVLTMRCLGHEKVAQLERKIGTPLRLYSGYSDSNQDNPLLYFCQHRWRVTPRGELQQLE [P0AD42]”, the “total protein half-life in vivo” value by setting is: under setting [1], 3.86 ± 0.9 h; under setting [2], 2.84 h; under setting [3], 2.383 ± 0.018 h; under setting [4], 2.07 h; under setting [5], 2.7 ± 0.1 h; under setting [6], 2.27 h. The “total protein half-life in vivo” value worked out at 3.96 h under setting [7]; 9.2 ± 0.12 h under setting [8]; 2.62 ± 0.42 h under setting [9]; 4.48 ± 0.64 h under setting [10]; 1.82 h under setting [11]; 3.39 h under setting [12].

As to “MARLAAFDMDGTLLMPDHHLGEKTLSTLARLRERDITLTFATGRHALEMQHILGALSLDAYLITGNGTRVHSLEGELLHRDDLPADVAELVLYQQWDTRASMHIFNDDGWFTGKEIPALLQAFVYSGFRYQIIDVKKMPLGSVTKICFCGDHDDLTRLQIQLYEALGERAHLCFSATDCLEVLPVGCNKGAALTVLTQHLGLSLRDCMAFGDAMNDREMLVSVGSGFIMGNAMPQLRAELPHLPVIGHCRNQAVSHYLTHWLDYPHLPYSPE”, the “total protein half-life in vivo” value was found to be 5.84 ± 0.52 h under setting [1] and 1.61 h under setting [4].

Turning to “MADRNLRDLLAPWVPDAPSRALREMTLDSRVAAAGDLFVAVVGHQADGRRYIPQAIAQGVAAIIAEAKDEATDGEIREMHGVPVIYLSQLNERLSALAGRFYHEPSDNLRLVGVTGTNGKTTTTQLLAQWSQLLGEISAVMGTVGNGLLGKVIPTENTTGSAVDVQHELAGLVDQGATFCAMEVSSHGLVQHRVAALKFAASVFTNLSRDHLDYHGDMEHYEAAKWLLYSEHHCGQAIINADDEVGRRWLAKLPDAVAVSMEDHINPNCHGRWLKATEVNYHDSGATIRFSSSWGDGEIESHLMGAFNVSNLLLALATLLALGYPLADLLKTAARLQPVCGRMEVFTAPGKPTVVVDYAHTPDALEKALQAARLHCAGKLWCVFGCGGDRDKGKRPLMGAIAEEFADVAVVTDDNPRTEEPRAIINDILAGMLDAGHAKVMEGRAEAVTCAVMQAKENDVVLVAGKGHEDYQIVGNQRLDYSDRVTVARLLGVIA”, the “total protein half-life in vivo” value by setting is: under setting [1], 5.09 ± 0.76 h; under setting [2], 3.51 ± 0.15 h; under setting [3], 3.43 ± 0.23 h; under setting [4], 4.497 ± 0.044 h; under setting [5], 3.39 ± 0.23 h; under setting [6], 2.65 ± 0.31 h. The “total protein half-life in vivo” value is 5.8 ± 0.085 h under setting [7]; 9.05 ± 0.4 h under setting [8]; 3.71 ± 0.04 h under setting [9]; 6.39 ± 0.93 h under setting [10]; 5.18 ± 0.14 h under setting [11]; 8.724 ± 0.074 h under setting [12].
